Test results from article PMC4454452 (The Biochemical journal, 2014).

Target: CHD4 PHD2 finger (15N-labelled, GST tag cleaved) (uniformly 15N-labelled)
Experiment: NMR titration

ARTKQTARKSTG [unmodified histone H3 peptide (amino acids 1-12 of histone H3), NMR experiments]
Kd: 18 µM
